Test results as given in paper PMC3166142, “Direct Inhibition of TNF-α Promoter Activity by Fanconi Anemia Protein FANCD2”.

Target: FANCD2 (Homo sapiens, UniProt Q9BXW9 1-1451)
Test: EMSA; 200 ng protein; 20 mM HEPES pH 7.6, 5 mM EDTA, 1 mM DTT, 150 mM KCl, 50 mM (NH4)2SO4, 1% Tween-20; 20 min, room temperature; native 4% PAGE
Conditions: protein: recombinant; tags: His6 removed by thrombin; label: 32P; blunt (duplex implied; only one strand printed for EMSA)

FANCD2, sequence (Q9BXW9 whole entry): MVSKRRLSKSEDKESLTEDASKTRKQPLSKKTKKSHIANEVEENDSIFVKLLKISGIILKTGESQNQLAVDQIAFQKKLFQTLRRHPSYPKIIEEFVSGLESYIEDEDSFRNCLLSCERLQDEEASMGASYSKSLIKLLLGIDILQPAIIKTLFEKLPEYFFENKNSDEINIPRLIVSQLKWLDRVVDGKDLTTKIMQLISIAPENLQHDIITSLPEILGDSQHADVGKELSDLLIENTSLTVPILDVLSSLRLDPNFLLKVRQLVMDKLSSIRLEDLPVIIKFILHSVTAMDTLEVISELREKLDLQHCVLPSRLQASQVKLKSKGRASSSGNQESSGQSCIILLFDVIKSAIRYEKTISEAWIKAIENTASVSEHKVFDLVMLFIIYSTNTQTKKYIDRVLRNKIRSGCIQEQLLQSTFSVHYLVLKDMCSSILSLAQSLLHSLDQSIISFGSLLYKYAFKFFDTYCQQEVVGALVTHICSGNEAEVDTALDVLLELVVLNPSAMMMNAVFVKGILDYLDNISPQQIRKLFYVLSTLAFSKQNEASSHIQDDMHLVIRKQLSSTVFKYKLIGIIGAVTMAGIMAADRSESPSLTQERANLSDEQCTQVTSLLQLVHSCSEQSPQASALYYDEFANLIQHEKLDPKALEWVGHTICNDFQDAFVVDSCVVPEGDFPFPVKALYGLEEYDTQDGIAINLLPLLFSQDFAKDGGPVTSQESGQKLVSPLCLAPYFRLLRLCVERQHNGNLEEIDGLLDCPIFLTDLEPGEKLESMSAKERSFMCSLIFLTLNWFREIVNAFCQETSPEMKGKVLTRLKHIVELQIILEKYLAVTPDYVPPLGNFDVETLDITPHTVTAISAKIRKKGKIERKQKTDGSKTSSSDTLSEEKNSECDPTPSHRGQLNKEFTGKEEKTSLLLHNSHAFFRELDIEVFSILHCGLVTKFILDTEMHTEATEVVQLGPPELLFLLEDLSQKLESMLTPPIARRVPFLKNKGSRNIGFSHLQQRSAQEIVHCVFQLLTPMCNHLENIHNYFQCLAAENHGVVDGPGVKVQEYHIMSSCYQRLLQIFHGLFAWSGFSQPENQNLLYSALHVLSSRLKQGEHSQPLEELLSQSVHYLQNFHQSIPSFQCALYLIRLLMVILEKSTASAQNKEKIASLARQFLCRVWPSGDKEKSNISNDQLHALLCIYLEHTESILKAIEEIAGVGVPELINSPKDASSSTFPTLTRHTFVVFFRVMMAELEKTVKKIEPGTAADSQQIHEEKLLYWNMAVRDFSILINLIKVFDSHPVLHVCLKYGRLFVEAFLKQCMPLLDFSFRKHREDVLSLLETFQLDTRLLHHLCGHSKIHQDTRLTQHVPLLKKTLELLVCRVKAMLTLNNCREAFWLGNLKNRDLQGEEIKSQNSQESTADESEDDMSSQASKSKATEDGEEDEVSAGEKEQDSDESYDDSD

B1: kB1 (dsDNA)
DNA 1: GAGTATGGGGACCCCCCCTTAA
DNA 2: TTAAGGGGGGGTCCCCATACTC
B1: binds.
